{"source": "paper doi:10.64898/2025.12.30.697032", "binders": {"B1": {"name": "Arabidopsis mitochondrial initiation factor 3 (natural protein)", "chain": "MAIWRIINRSYLKYASNQLTRNYYTQVCLASSTHVVKQTTKLSSFDIPNSDICTRPSNIFQNLRFLATSAQTRKKEAEVDSDGPRLNEKITGDYVRLVSEEGHCVVSLREALRRAKELQCDLVEVQRDAKPPVCKIVKYSLELYKKAKVGKERAKAKRAEAIRPDIKEIRFTPKIEAKDLKFKSDQALKLMESGYRVKCLAVPDKDKHKELEPEKLLELLFRFTCFIGDALVESWPEADRKGAVVIVRHAKFGPPKKGGVKLMKDIDIKSARVKEESPKPDSSKAGVATVDDQEDIEKSEPRFSVEQAQPVKFQNAYAKREPSSEFSGGRDASRFEPQSPNQHVNPQRPRFSNQAPNQQPTGRFDPQSPNQPPSAPRPQFPNQQPTGRFDPQFPSQPPRPQFPNQAPNQQSTGRFNPQFPNQRPSPPQSRFPDQAPNQQPSGPSPNRHPDRQGPPPRFQNQAPNQQPTGRFEPQPPNPPRAPPRPQTRLPNETSNEQPTAPGRSSGPASGYGIFSTPKTK"}}, "target": "cauliflower mitoribosome small subunit (cauliflower (B. oleracea))", "assay": "cryo-EM structure; in vitro reconstitution (first reaction): 2.7 ug/uL mtSSU, 500 nM rps3 mRNA (51 nt), 500 nM mtIF3, 2 min at 37 °C, then 10 min on ice; Initiation buffer (20 mM HEPES-KOH pH 7.6, 75 mM KCl, 40 mM MgCl2); gives mtPIC-1 and mtPIC-2", "data": [{"binder": "B1", "values": [{"measurement": "percent of mtSSU particles accommodating mtIF3", "result": 70, "unit": "%"}]}]}
